For 34 sequences, Kd results are on record in the Immune Epitope Database (IEDB).

Test [1] addresses HLA-B*08:01. Put plainly: IEDB peptide-MHC binding, purified MHC/competitive/radioactivity; filed as Kd, often an IC50 or EC50 that approximates it; ≥ and ≤ were set here for values at or beyond the usual limits of such assays.
Test [2] deals with HLA-B*51:01. Nature of the test: IEDB peptide-MHC binding, purified MHC/competitive/fluorescence; filed as Kd, often an IC50 or EC50 that approximates it; ≥ and ≤ were set here for values at or beyond the usual limits of such assays. The settings on record: source organism: Yersinia pestis Nepal516.
Test [3] concerns the target HLA-A*02:06. Put plainly: IEDB peptide-MHC binding, purified MHC/competitive/radioactivity; filed as Kd, often an IC50 or EC50 that approximates it; ≥ and ≤ were set here for values at or beyond the usual limits of such assays.
The target of test [4] is HLA-A*68:02. The description is as above.
Test [5] concerns the target HLA-A*26:01. Put plainly: IEDB peptide-MHC binding, purified MHC/competitive/fluorescence; filed as Kd, often an IC50 or EC50 that approximates it; ≥ and ≤ were set here for values at or beyond the usual limits of such assays.
In test [6] the target is HLA-B*54:01. Put plainly: IEDB peptide-MHC binding, purified MHC/competitive/radioactivity; filed as Kd, often an IC50 or EC50 that approximates it; ≥ and ≤ were set here for values at or beyond the usual limits of such assays.
In test [7] the target is HLA-B*07:02. Described as above.
The target of test [8] is HLA-B*35:01. The test is described as above.
Test [9] addresses HLA-B*51:01. The test is described as above.
Test [10] addresses HLA-B*53:01. The test is described as above.
Test [11] concerns the target HLA-A*26:01. The test is described as above. The settings on record: source organism: Dengue virus 4 Philippines/H241/1956.
The target of test [12] is HLA-A*03:01. The description is as above. To be noted: source organism: Dengue virus 4 Philippines/H241/1956.
The target in test [13] is HLA-A*33:01. The description is as above. The settings on record: source organism: Dengue virus 4 Philippines/H241/1956.
The target in test [14] is HLA-A*31:01. Described as above. The settings on record: source organism: Dengue virus 4 Philippines/H241/1956.
Setting [15] is: source organism: Dengue virus 1 Brazil/97-11/1997.
Setting [16] is: source organism: Mammarenavirus brazilense.
The mark [17] stands for this setting: source organism: Dengue virus 4 Philippines/H241/1956.
[18] abbreviates: source organism: Vaccinia virus WR.
Setting [19] is: source organism: Dengue virus 2 Jamaica/1409/1983.
Setting [20] is: source organism: Triticum aestivum.
[21] abbreviates: source organism: SARS coronavirus Tor2.
Where [22] appears, read: source organism: Lymphocytic choriomeningitis virus (strain Armstrong).
The mark [23] stands for this setting: source organism: Mammarenavirus lassaense.

A word on the Kd: it is the concentration at which binding is half-saturated.

In the case of WMIRILIGFL, the Kd in [1] (source organism: Dengue virus 4 Dominica/814669/1981) came to 168 nM.
For the sequence LPWLIFIQI, in test [2], the equilibrium dissociation constant (Kd) was 1690 nM.
Turning to SLPLPNFSSL, the Kd in test [3] (source organism: Homo sapiens) stood at 641 nM; in test [4] (source organism: Homo sapiens) it was 1.19 nM.
Turning to EAAGIAACL, in test [5] (source organism: Escherichia coli F11), the equilibrium dissociation constant (Kd) came out at 14.6 nM.
Take MLKRARNRV: in test [1] (setting [15]), the dissociation constant Kd is 25 nM.
Consider QPGLLSYVI, for which the Kd in test [6] (setting [16]) stood at 5060 nM; in test [7] (setting [16]) it was 12200 nM; in [8] (setting [16]) it was 1100 nM; in [9] (setting [16]), 2260 nM; in test [10] (setting [16]), 308 nM.
As for ESPARLASAI, the Kd in [11] is 4480 nM; in [4] (setting [17]), 501 nM.
Take IPGDILSII: the Kd in test [6] (setting [18]) is 370 nM; in [7] (setting [18]), 43.5 nM; in test [8] (setting [18]), 266 nM; in [9] (setting [18]), 0.459 nM; in [10] (setting [18]) it was 27.5 nM.
For the sequence RPEMQEFEY, the dissociation constant Kd in [6] (setting [18]) was at least 78100 nM; in [7] (setting [18]), at least 68800 nM; in [8] (setting [18]), 8.09 nM; in test [9] (setting [18]), at least 77500 nM; in test [10] (setting [18]), 16.7 nM.
For SGMRRQEQI, in [1] (setting [18]), the dissociation constant (Kd) was found to be 16.5 nM.
Turning to SASSMVNGV, in test [4] (setting [19]), the Kd came out at 24.3 nM.
As for SSALLWMASV, in test [4] (setting [15]), the Kd came out at 46.7 nM.
On to NPQAQGSV, for which the equilibrium dissociation constant (Kd) is 10900 nM in test [6] (setting [20]); 3660 nM in test [7] (setting [20]); at least 87800 nM in [8] (setting [20]); 6060 nM in test [9] (setting [20]); at least 87700 nM in test [10] (setting [20]).
Consider TRKVRSNAA, for which, in test [1] (setting [19]), the Kd was found to be 6.25 nM.
As for MLLNRFTTR, the dissociation constant (Kd) is 12 nM in test [12], 2480 nM in [1] (setting [17]), 14.8 nM in [13] and 1.5 nM in test [14].
On to ILRKIFYSV, for which the dissociation constant Kd in [1] (setting [18]) was 0.102 nM.
As to CINVRRCAL, the Kd in test [1] (setting [18]) stood at 6.94 nM.
On to TAIANQAAIL, for which, in test [1] (setting [15]), the dissociation constant Kd is 422 nM.
As for QPQQLPQF, the dissociation constant (Kd) was at least 87700 nM in test [6] (setting [20]); 1460 nM in test [7] (setting [20]); at least 87800 nM in [8] (setting [20]); at least 87300 nM in test [9] (setting [20]); at least 87700 nM in [10] (setting [20]).
In the case of YVVIGLLFMI, the Kd in test [3] (setting [15]) was found to be 140 nM; in test [4] (setting [15]), 102 nM.
As to LPDALLFTL, the Kd worked out at 2890 nM in test [6] (setting [16]); 201 nM in test [7] (setting [16]); 13.3 nM in [8] (setting [16]); 3330 nM in test [9] (setting [16]); 14.6 nM in test [10] (setting [16]).
RPLMESELV: the dissociation constant Kd in test [6] (setting [21]) is at least 47500 nM; in test [7] (setting [21]), 8200 nM; in test [8] (setting [21]), at least 24400 nM; in [9] (setting [21]) it was 2370 nM; in [10] (setting [21]), at least 42200 nM.
Regarding NNRYRFAFL, the Kd in test [1] (setting [18]) came out at 31.1 nM.
NPIVLHNGM: the Kd in [6] (setting [16]) is at least 78100 nM; in [7] (setting [16]), 1760 nM; in test [8] (setting [16]) it was 440 nM; in [9] (setting [16]) it was at least 32400 nM; in [10] (setting [16]) it was 10500 nM.
On to YTPEGIIPTL, for which the dissociation constant Kd in test [3] (setting [17]) is 21.3 nM; in test [4] (setting [17]), 264 nM.
Turning to STVGASGVY, the Kd in test [5] (source organism: Orthohantavirus sinnombreense) was at most 1 nM.
Take LLQMEDKAWL: the dissociation constant Kd in test [1] (setting [19]) turned out to be 2010 nM.
Consider YRPLHFQYV, for which the Kd in test [1] (setting [18]) was determined as 245 nM.
With DTAKAFAYL, the Kd in test [5] (source organism: Escherichia coli) is 186 nM.
As for NLAERFCTE, the equilibrium dissociation constant (Kd) in [1] (setting [18]) amounted to 1900 nM.
For HPIMYYTKF, the dissociation constant (Kd) in [6] (setting [22]) was 3770 nM; in test [7] (setting [22]), 134 nM; in test [8] (setting [22]) it was 17.7 nM; in test [9] (setting [22]), 1600 nM; in test [10] (setting [22]) it was 14.5 nM.
Take TSAGVNMCTL: the Kd in [4] (setting [15]) came to 6.97 nM.
With QLKGQGKSRL, the Kd in test [3] (source organism: Homo sapiens) was at least 42200 nM; in [4] (source organism: Homo sapiens), at least 60000 nM.
Turning to MPDCGMSVL, the Kd in test [6] (setting [23]) was found to be 2720 nM; in [7] (setting [23]), 100 nM; in test [8] (setting [23]) it was 4.63 nM; in test [9] (setting [23]) it was 2810 nM; in test [10] (setting [23]), 83.3 nM.
